Test results reported in PMC5700927, “Heme enables proper positioning of Drosha and DGCR8 on primary microRNAs” (Nature Communications, 2017).
Substitutions are numbered along the chain they refer to. Names and notes keep the numbering of the source.

T1: Drosha (residues 353-1372) (human, UniProt Q9NRR4 353-1372)
T1 construct: Drosha (RNase III), human, residues 353-1372 (CED, two RIIID domains, dsRBD); also called the Drosha chain of MP^Heme, MP^Apo, MP^C352S, MP^ΔHBR and MP^CTT
T1 sequence (looked up): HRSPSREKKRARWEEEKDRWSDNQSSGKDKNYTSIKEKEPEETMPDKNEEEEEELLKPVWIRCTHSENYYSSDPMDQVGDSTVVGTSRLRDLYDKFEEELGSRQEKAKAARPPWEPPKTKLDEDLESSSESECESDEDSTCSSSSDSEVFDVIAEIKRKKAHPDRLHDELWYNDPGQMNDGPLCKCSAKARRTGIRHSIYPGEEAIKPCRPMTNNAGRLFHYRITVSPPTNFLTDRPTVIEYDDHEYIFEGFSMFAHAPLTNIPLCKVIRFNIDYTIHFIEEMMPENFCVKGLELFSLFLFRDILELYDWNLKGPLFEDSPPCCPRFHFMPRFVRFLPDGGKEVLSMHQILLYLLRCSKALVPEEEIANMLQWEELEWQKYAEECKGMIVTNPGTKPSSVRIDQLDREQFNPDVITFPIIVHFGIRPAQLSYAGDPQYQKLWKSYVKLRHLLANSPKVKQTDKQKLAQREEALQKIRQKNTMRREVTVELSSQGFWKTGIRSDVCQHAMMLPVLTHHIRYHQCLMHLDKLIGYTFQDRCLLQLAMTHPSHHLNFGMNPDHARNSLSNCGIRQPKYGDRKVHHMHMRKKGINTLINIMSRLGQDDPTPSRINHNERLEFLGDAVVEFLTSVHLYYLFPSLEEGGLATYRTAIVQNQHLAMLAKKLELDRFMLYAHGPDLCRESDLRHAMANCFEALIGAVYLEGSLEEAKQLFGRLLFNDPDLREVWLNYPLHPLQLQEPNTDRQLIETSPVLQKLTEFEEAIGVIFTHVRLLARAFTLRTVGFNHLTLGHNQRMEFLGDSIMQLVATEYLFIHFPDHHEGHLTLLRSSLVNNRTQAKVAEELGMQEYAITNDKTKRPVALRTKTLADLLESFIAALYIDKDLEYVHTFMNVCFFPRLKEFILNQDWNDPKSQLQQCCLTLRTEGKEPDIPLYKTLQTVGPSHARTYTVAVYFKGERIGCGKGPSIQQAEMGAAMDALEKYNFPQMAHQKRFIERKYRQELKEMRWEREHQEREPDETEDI

B1: DGCR8^ΔHBR (residues 489-751), co-expressed with Drosha (domain or fragment, human, UniProt Q8WYQ5 489-751, looked up)
chain: LITLSVQDAPTKKEFVINPNGKSEVCILHEYMQRVLKVRPVYNFFECENPSEPFGASVTIDGVTYGSGTASSKKLAKNKAARATLEILIPDFVKQTSEEKPKDSEELEYFNHISIEDSRVYELTSKAGLLSPYQILHECLKRNHGMGDTSIKFEVVPGKNQKSEYVMACGKHTVRGWCKNKRVGKQLASQKILQLLHPHVKNWGSLLRMYGRESSKMVKQETSDKSVIELQQYAKKNKPNLHILSKLQEEMKRLAEEREETRK
notes: DGCR8, human, residues 489-751 (tandem dsRBDs and C-terminal tail, no HBR); One copy per Drosha in MP^ΔHBR; also called DGCR8 lacking the HBR; the DGCR8 chain of MP^ΔHBR
B2: DGCR8 (residues 223-751), isolated, wild type (domain or fragment, human, UniProt Q8WYQ5 223-751, looked up)
chain: AIVQRDRVDEEALNFPYEDDFDNDVDALLEEGLCAPKKRRTEEKYGGDSDHPSDGETSVQPMMTKIKTVLKSRGRPPTEPLPDGWIMTFHNSGVPVYLHRESRVVTWSRPYFLGTGSIRKHDPPLSSIPCLHYKKMKDNEEREQSSDLTPSGDVSPVKPLSRSAELEFPLDEPDSMGADPGPPDEKDPLGAEAAPGALGQVKAKVEVCKDESVDLEEFRSYLEKRFDFEQVTVKKFRTWAERRQFNREMKRKQAESERPILPANQKLITLSVQDAPTKKEFVINPNGKSEVCILHEYMQRVLKVRPVYNFFECENPSEPFGASVTIDGVTYGSGTASSKKLAKNKAARATLEILIPDFVKQTSEEKPKDSEELEYFNHISIEDSRVYELTSKAGLLSPYQILHECLKRNHGMGDTSIKFEVVPGKNQKSEYVMACGKHTVRGWCKNKRVGKQLASQKILQLLHPHVKNWGSLLRMYGRESSKMVKQETSDKSVIELQQYAKKNKPNLHILSKLQEEMKRLAEEREETRK
notes: DGCR8, human, residues 223-751 (HBR, two dsRBDs, C-terminal tail); also called DGCR8^Heme; DGCR8^Apo; source: E. coli BL21 (DE3) Rosetta, pET21, purified (Ni-NTA, cation exchange, size exclusion); 5 uM hemin Cl in the media for heme-saturated protein
B3: DGCR8 (residues 223-751) C352S, isolated (domain or fragment, human, UniProt Q8WYQ5 223-751, looked up)
chain: B2 chain with C130S
notes: also called DGCR8^C352S; source: E. coli BL21 (DE3) Rosetta, pET21, purified (Ni-NTA, cation exchange, size exclusion)
B4: DGCR8 (residues 223-751), wild type, co-expressed with Drosha (domain or fragment, human, UniProt Q8WYQ5 223-751, looked up)
chain: B2 chain
notes: DGCR8, human, residues 223-751; Two copies per Drosha in the complex (heterotrimer); Heme-saturated in MP^Heme, heme-deficient in MP^Apo; also called DGCR8^Heme; DGCR8^Apo; source: MP^Apo separated from MP^Heme by repeated ion exchange
B5: DGCR8 (residues 223-751) C352S, co-expressed with Drosha (domain or fragment, human, UniProt Q8WYQ5 223-751, looked up)
chain: B2 chain with C130S
notes: also called DGCR8^C352S; the DGCR8 chain of MP^C352S

How the values were obtained:
[1] = target: T1, Drosha (residues 353-1372); test: SEC-MALS; purified co-expressed Drosha/DGCR8 complex; Superdex 200 Increase 10/300; 20 mM Tris pH 8.0, 750 mM NaCl, 1 mM TCEP, 10% glycerol; settings: both partners purified
[2] = target: the molecule itself; test: SEC-MALS; isolated DGCR8; Superdex 200 Increase 10/300; 20 mM Tris pH 8.0, 750 mM NaCl, 1 mM TCEP, 10% glycerol; wild-type sample heme-deficient (Apo); heme-saturated samples inconclusive and not reported
[3] = target: the molecule itself; test: AUC; sedimentation velocity of isolated DGCR8; 0.1-1 mg/mL; 20 mM Tris pH 8.0, 500 mM NaCl, 1 mM TCEP; 142,000 x g, about 16 h; wild-type sample heme-saturated
[4] = target: the molecule itself; test: AUC; sedimentation velocity of purified co-expressed Drosha/DGCR8 complex; 0.1-1 mg/mL; 20 mM Tris pH 8.0, 500 mM NaCl, 1 mM TCEP; 72,400 x g, about 16 h
[5] = target: the molecule itself; test: SEC-MALS; purified co-expressed Drosha/DGCR8 complex; Superdex 200 Increase 10/300; 20 mM Tris pH 8.0, 750 mM NaCl, 1 mM TCEP, 10% glycerol

Row | Binder | stoichiometry N [2] | stoichiometry N [3] | stoichiometry N [4] | also measured
1 | B1 |  |  |  | stoichiometry N [1]: 1
2 | B2 | 2 | 2 |  | 
3 | B3 | 2 | 2 |  | 
4 | B4 |  |  | 2 | 
5 | B5 |  |  | 2 | stoichiometry N [5]: 2
